Source: patent US8334254

How the values were obtained:
[1] = target: enterocytic lactoferrin receptor on HT-29-18C1 enterocytic cells (human); test: 125I-labelled ligand on HT29 cells with 100 molar excess of non-labelled native Lf
[2] = target: lymphocytic lactoferrin receptor on Jurkat T lymphoblastic cells; test: 125I-labelled ligand on Jurkat cells with 100 molar excess of non-labelled native Lf
[3] = target: enterocytic lactoferrin receptor on HT-29-18C1 enterocytic cells (human); test: 125I-labelled ligand binding to HT-29-18C1 cells on ice, Scatchard analysis
[4] = target: lymphocytic lactoferrin receptor on Jurkat T lymphoblastic cells; test: 125I-labelled ligand binding to Jurkat cells at 4° C., Scatchard analysis

| Substance | non-specific binding as share of total binding [1] | non-specific binding as share of total binding [2] | Kd [3] | sites per cell (sites per cell) [3] | Kd [4] |
| --- | --- | --- | --- | --- | --- |
| human lactoferrin isolated from human milk (from UniProt P02788 20-710) (ligand) | 25% | 25% | 1000 nM | 4e+06 | 89.7 nM |
| recombinant human lactoferrin rhLf2 from pBIOC21-PSSp-Lf, purified from tobacco leaves (transformant T30) (from UniProt P02788 20-710) (ligand) | 25% | 25% | 800 nM | 1.8e+06 | 80.3 nM |
